Test results published in publication PMC6053351 (2017).

Columns and labels:
Experiment in all cases: ITC
[1] = biological target: RBBP4 Glu126Ala/Asn128Ala/Glu179Ala (UniProt Q09028 1-425, Glu126Ala | Asn128Ala | Glu179Ala)
[2] = biological target: RBBP4 Glu231Ala (UniProt Q09028 1-425, Glu231Ala)
[3] = biological target: RBBP4, full-length, wild type (UniProt Q09028 1-425)
Sequence of RBBP4, full-length, wild type (Q09028 whole entry): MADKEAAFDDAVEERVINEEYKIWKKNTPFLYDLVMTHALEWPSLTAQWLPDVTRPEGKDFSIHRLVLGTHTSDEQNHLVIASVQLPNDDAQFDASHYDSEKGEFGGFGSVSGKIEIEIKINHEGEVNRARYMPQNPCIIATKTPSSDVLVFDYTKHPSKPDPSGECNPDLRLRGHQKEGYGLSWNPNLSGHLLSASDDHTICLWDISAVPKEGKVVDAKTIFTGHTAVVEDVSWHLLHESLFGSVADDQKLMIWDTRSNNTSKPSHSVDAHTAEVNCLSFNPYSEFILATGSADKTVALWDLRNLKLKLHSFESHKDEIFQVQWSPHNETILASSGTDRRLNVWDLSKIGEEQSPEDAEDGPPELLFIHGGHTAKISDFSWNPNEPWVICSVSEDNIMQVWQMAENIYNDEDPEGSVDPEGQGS

Sequence of RBBP4 Glu231Ala (Q09028 whole entry E231A): as the sequence (Q09028 whole entry) above, with E231A counted along it
Sequence of RBBP4 Glu126Ala/Asn128Ala/Glu179Ala (Q09028 whole entry E126A/N128A/E179A): as the sequence (Q09028 whole entry) above, with E126A, N128A, E179A counted along it

Row | Kd [1] [µM] | Kd [2] [µM] | Kd [3] [µM] | Binder
1 | 56.8 | 38.5 |  | KRRKLKNKRRRS [AEBP2_(379–390) peptide (RRK-rich motif, residues Lys379–Ser390)]
2 |  |  | 178 | KARALKNKRRRS [AEBP2_(379–390) peptide with mutations Arg380Ala/Lys382Ala]
